Assay results published in patent publication US20240279318A1 (published 2024).
Positions count from the first letter of the chain named. Names may count otherwise. Blank lines part the entries; values can stand above or below the binder they belong to.

Experiments:
[1] = biological target: A*02:11; assay: SPR
[2] = biological target: A*02:06; assay: SPR
[3] = biological target: A*02:03; assay: SPR; low fitting confidence
[4] = biological target: A*02:07; assay: SPR; low fitting confidence
[5] = biological target: A*02:02; assay: SPR; low fitting confidence
[6] = biological target: A*02:05; assay: SPR; low fitting confidence
[7] = biological target: A*02:05; assay: SPR
[8] = biological target: A*02:11; assay: SPR; low fitting confidence
[9] = biological target: A*02:11; assay: SPR; head prints KD(1/s)
[10] = biological target: A*02:03; assay: SPR; head prints KD(1/s)
[11] = biological target: A*02:07; assay: SPR; head prints KD(1/s)
[12] = biological target: A*02:02; assay: SPR; head prints KD(1/s)
[13] = biological target: A*02:05; assay: SPR; head prints KD(1/s)
[14] = biological target: A*02:06; assay: SPR; head prints KD(1/s)
[15] = biological target: A*02:03; assay: SPR
[16] = biological target: A*02:06; assay: SPR; low fitting confidence
[17] = biological target: AFP158/HLA-A*02:01 complex; assay: SPR
[18] = biological target: AFP158 loaded T2 cells (human;, UniProt P61769 21-119); assay: flow cytometry
[19] = biological target: A*02:07; assay: SPR
[20] = biological target: A*02:02; assay: SPR
[21] = biological target: AFP158/HLA-A*02:01 complex; assay: SPR; remark: listed apart in the source
[22] = biological target: A*02:03; assay: SPR; remark: listed apart in the source
[23] = biological target: A*02:05; assay: SPR; remark: listed apart in the source
[24] = biological target: A*02:06; assay: SPR; remark: listed apart in the source
[25] = biological target: A*02:11; assay: SPR; low fitting confidence; remark: listed apart in the source
[26] = biological target: A*02:07; assay: SPR; low fitting confidence; remark: listed apart in the source
[27] = biological target: A*02:02; assay: SPR; low fitting confidence; remark: listed apart in the source
[28] = biological target: A*02:11; assay: SPR; remark: listed apart in the source
[29] = biological target: A*02:07; assay: SPR; remark: listed apart in the source
[30] = biological target: AFP158/HLA-A*02:01 complex; assay: SPR; head prints KD(1/s)

B1: AS179723 VL1g1VH1g1-N73Y (Fc fusion)
chain: QSVLTQPPSASGTPGQRVTISCSGSSNNIGGNYVNWYQQLPGTAPKLLIYDNKNRPSGVPDRFSGSKSGTSASLAISGLQSEDEADYYCASWDDSLSAVVFGGGTKLTVLGGGGSGGGGSGGGGSEVQLVESGGGLVQPGGSLRLSCAASGFTFLNYAMSWVRQAPGKGLEWVSSNSGAGSTYYADSVKGRFTISRDYSKNTLYLQMNSLRAEDTAVYYCAKGTNVGSWSSLHYWGQGTLVTVSS
- Kd [1]: 0.7 µM
- Kd [2]: 0.22 µM
- Kd [3]: > 6.1 µM
- Kd [4]: > 1.7 µM
- Kd [5]: > 77 µM
- Kd [6]: > 17 µM

B2: AS179732 VL1g1VH1g1-N73Y (Fc fusion)
chain: B1 chain with N27S, K53S, P56A, A98G, V99A
- Kd [7]: 17 µM
- Kd [2]: 0.22 µM
- Kd [8]: > 1 µM
- Kd [3]: > 11 µM
- Kd [4]: > 2.4 µM
- Kd [5]: > 29 µM

B3: AS190259 (Fc fusion)
chain: QSVVTQPSAVSVSLEETATITCQGGGYYVNWYQQKPGQAPVLVIYLNTNRPSGIPERFSASKSGGTATLTINGAQAEDEAAYYCQSADSSGNSAVFGGGTHLTVLGGGGSGGGGSGGGGSQVQLVQSGGGLVQPGGSLRLSCAASGFTFSSYAMSWVRQAPGKGLEWVSAINSGGGSTYYADSVKGRFTISRDNAKNTLYLQLNSLKTEDTAMYYCAKAASGYGGSWWGDATLDAWGQGTLVTVSS
- Kd [9]: 4.5 µM
- Kd [10]: 35 µM
- Kd [11]: 2.5 µM
- Kd [12]: 0.66 µM
- Kd [13]: 3.8 µM
- Kd [14]: 0.52 µM

B4: AS170036 (Fc fusion)
chain: QLVLTQPSSVSGTPGQTVTISCAGTSSDVGSENYVSWYRQLPGTAPKLLIYQVNKRASGIADRFSGSKSGNTASMTISGLQSADEADYYCASYRSSDHNIVFGGGTHLTVLGGGGSGGGGSGGGGSAVQLVESGGGLVQPGGSLRLSCTASGFTFSSYAMSWVRQAPGKGLEWVSTINSGTGSPYYADSVKGRFTISRDNAKNTLYLQLNSLKTEDTAMYYCAKNFFDGSWFLGPPAMDYWGKGTLVTISS
- Kd [15]: 38 µM
- Kd [8]: > 28 µM
- Kd [4]: > 4.8 µM
- Kd [5]: > 5 µM
- Kd [6]: > 100 µM
- Kd [16]: > 3.1 µM

B5: AS170036 VL1VH1 scFv-mIgG2aFc (Fc fusion)
chain: QSALTQPRSVSGSPGQSVTISCAGTSSDVGSENYVSWYQQHPGKAPKLMIYQVNKRASGVPDRFSGSKSGNTASLTISGLQAEDEADYYCASYRSSDHNIVFGGGTKLTVLGGGGSGGGGSGGGGSEVQLVESGGGLVQPGGSLRLSCAASGFTFSSYAMSWVRQAPGKGLEWVSTINSGTGSPYYADSVKGRFTISRDNSKNTLYLQMNSLRAEDTAVYYCAKNFFDGSWFLGPPAMDYWGQGTLVTVSS
- Kd [17]: 0.256 µM
- EC50 [18]: 0.00879 µM

B8: AS170036 VL1VH1-56Y98I108S (scFv)
scFv: QSALTQPRSVSGSPGQSVTISCAGTSSDVGSENYVSWYQQHPGKAPKLMIYQVNKRASGVPDRFSGSKSGNTASLTISGLQAEDEADYYCASYRSSDINIVFGGGTKLTVLGGGGSGGGGSGGGGSEVQLVESGGGLVQPGGSLRLSCAASGFTFSSYAMSWVRQAPGKGLEWVSTINSGTYSPYYADSVKGRFTISRDNSKNTLYLQMNSLRAEDTAVYYCAKNFFDGSWFLSPPAMDYWGQGTLVTVSSHHHHHH
- Kd [21]: 0.0024 µM
- Kd [28]: 0.16 µM
- Kd [22]: 0.95 µM
- Kd [29]: 1 µM
- Kd [23]: 2.4 µM
- Kd [24]: 0.069 µM
- Kd [27]: > 4.5 µM

Results, then the binder that gave them:

- Kd [1]: 0.297 µM
- Kd [15]: 2.57 µM
- Kd [19]: 1.27 µM
- Kd [20]: 32.2 µM
- Kd [7]: 29 µM
- Kd [2]: 0.114 µM
B6: AS179723 (Fc fusion)
chain: QAGLTQPPSMSGSPRQSVTISCTGSSNNIGGNYVNWYQHLPGTAPKLLIYDNKNRPSGVPEQISGSKSGSSASLTITGLQAEDEGDYYCASWDDSLSAVVFGGGTHLTVLGGGGSGGGGSGGGGSEVQLVESGGGLVQPGGSLRLSCAASGFTFLNYAMSWVRQAPGKGLEWVSSNSGAGSTYYSDSVKGRFTISRDYAKNVVYLQLNSLKTEDTGMYYCAKGTNVGSWSSLHYWGQGTQVTVSS

- Kd [21]: 0.041 µM
- Kd [22]: 2.7 µM
- Kd [23]: 2.1 µM
- Kd [24]: 0.57 µM
- Kd [25]: > 0.5 µM
- Kd [26]: > 17 µM
- Kd [27]: > 3.2 µM
B7: AS170036 VL1VH1-56N98I (scFv)
scFv: B8 scFv with Y182N, S234G

- Kd [9]: 6.7 µM
- Kd [10]: 48 µM
- Kd [11]: 3.5 µM
- Kd [12]: 0.97 µM
- Kd [13]: 7 µM
- Kd [14]: 0.8 µM
B9: AS190259 VL1VH1 (Fc fusion)
chain: SSELTQDPAVSVALGQTVRITCQGGGYYVNWYQQKPGQAPVLVIYLNTNRPSGIPDRFSGSSSGNTASLTITGAQAEDEADYYCQSADSSGNSAVFGGGTKLTVLGGGGSGGGGSGGGGSEVQLVESGGGLVQPGGSLRLSCAASGFTFSSYAMSWVRQAPGKGLEWVSAINSGGGSTYYADSVKGRFTISRDNSKNTLYLQMNSLRAEDTAVYYCAKAASGYGGSWWGDATLDAWGQGTLVTVSS

- EC50 [18]: 0.00356 µM
- Kd [30]: 0.13 µM
B10: AS190259 VL1VH1 scFv-mIgG2aFc (Fc fusion)
chain: B9 chain
